Data from patent publication US20190071490A1, “Preventing Post-Ictal Headaches” (Beth Israel Deaconess Medical Center, Inc., priority 2017, published 2019).

T1: human α-CGRP (Homo sapiens, UniProt P06881)
T1 construct: 1-37 (WT); purchased GenScript Corporation or Global Peptide Services
T1 sequence (P06881 83-119 limits assumed): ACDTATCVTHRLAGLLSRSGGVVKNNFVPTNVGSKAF

T2: rat α-CGRP (Rattus norvegicus, UniProt P01256)
T2 construct: rat α (1-37); purchased GenScript Corporation or Global Peptide Services
T2 sequence (P01256 83-119 limits assumed): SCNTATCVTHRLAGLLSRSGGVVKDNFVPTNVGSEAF

B1: M21: G1 variant; L1 R28W; HC-FW3 L99S (antibody, V domains shown)
VH: EVQLVESGGGLVQPGGSLRLSCAASGFTFSNYWISWVRQAPGKGLEWVAEIRSESDASATHYAEAVKGRFTISRDNAKNSLYLQMNSLRAEDTAVYYCSAYFDYGLAIQNYWGQGTLVTVSS
VL: EIVLTQSPATLSLSPGERATLSCKASKWVTTYVSWYQQKPGQAPRLLIYGASNRYLGIPARFSGSGSGTDFTLTISSLEPEDFAVYYCSQSYNYPYTFGQGTKLEIK
B2: M24: G1 variant; L1 R28L; HC-FW3 L99T A100V (antibody, V domains shown)
VH: EVQLVESGGGLVQPGGSLRLSCAASGFTFSNYWISWVRQAPGKGLEWVAEIRSESDASATHYAEAVKGRFTISRDNAKNSLYLQMNSLRAEDTAVYYCTVYFDYGLAIQNYWGQGTLVTVSS
VL: EIVLTQSPATLSLSPGERATLSCKASKLVTTYVSWYQQKPGQAPRLLIYGASNRYLGIPARFSGSGSGTDFTLTISSLEPEDFAVYYCSQSYNYPYTFGQGTKLEIK
B3: M27: G1 variant; L1 R28N T30A; HC-FW3 L99T A100V (antibody, V domains shown)
VH: EVQLVESGGGLVQPGGSLRLSCAASGFTFSNYWISWVRQAPGKGLEWVAEIRSESDASATHYAEAVKGRFTISRDNAKNSLYLQMNSLRAEDTAVYYCTVYFDYGLAIQNYWGQGTLVTVSS
VL: EIVLTQSPATLSLSPGERATLSCKASKNVATYVSWYQQKPGQAPRLLIYGASNRYLGIPARFSGSGSGTDFTLTISSLEPEDFAVYYCSQSYNYPYTFGQGTKLEIK
B4: M22: G1 variant; L1 R28W; HC-FW3 L99T (antibody, V domains shown)
VH: EVQLVESGGGLVQPGGSLRLSCAASGFTFSNYWISWVRQAPGKGLEWVAEIRSESDASATHYAEAVKGRFTISRDNAKNSLYLQMNSLRAEDTAVYYCTAYFDYGLAIQNYWGQGTLVTVSS
VL: EIVLTQSPATLSLSPGERATLSCKASKWVTTYVSWYQQKPGQAPRLLIYGASNRYLGIPARFSGSGSGTDFTLTISSLEPEDFAVYYCSQSYNYPYTFGQGTKLEIK
B5: M28: G1 variant; L1 R28N T30D; H2 E54R A57N; HC-FW3 L99T A100V (antibody, V domains shown)
VH: EVQLVESGGGLVQPGGSLRLSCAASGFTFSNYWISWVRQAPGKGLEWVAEIRSRSDNSATHYAEAVKGRFTISRDNAKNSLYLQMNSLRAEDTAVYYCTVYFDYGLAIQNYWGQGTLVTVSS
VL: EIVLTQSPATLSLSPGERATLSCKASKNVDTYVSWYQQKPGQAPRLLIYGASNRYLGIPARFSGSGSGTDFTLTISSLEPEDFAVYYCSQSYNYPYTFGQGTKLEIK
B6: M26: G1 variant; L1 R28N; H2 A57G; HC-FW3 L99T A100V (antibody, V domains shown)
VH: EVQLVESGGGLVQPGGSLRLSCAASGFTFSNYWISWVRQAPGKGLEWVAEIRSESDGSATHYAEAVKGRFTISRDNAKNSLYLQMNSLRAEDTAVYYCTVYFDYGLAIQNYWGQGTLVTVSS
VL: EIVLTQSPATLSLSPGERATLSCKASKNVTTYVSWYQQKPGQAPRLLIYGASNRYLGIPARFSGSGSGTDFTLTISSLEPEDFAVYYCSQSYNYPYTFGQGTKLEIK
B7: M23: G1 variant; L1 R28G; HC-FW3 L99T A100V (antibody, V domains shown)
VH: EVQLVESGGGLVQPGGSLRLSCAASGFTFSNYWISWVRQAPGKGLEWVAEIRSESDASATHYAEAVKGRFTISRDNAKNSLYLQMNSLRAEDTAVYYCTVYFDYGLAIQNYWGQGTLVTVSS
VL: EIVLTQSPATLSLSPGERATLSCKASKGVTTYVSWYQQKPGQAPRLLIYGASNRYLGIPARFSGSGSGTDFTLTISSLEPEDFAVYYCSQSYNYPYTFGQGTKLEIK

What was measured:
human α-CGRP = molecular target: T1, human α-CGRP; experiment: Biacore SPR affinity of Fab fragments to N-biotinylated human α-CGRP on SA chip; assay type: binding; settings: 37° C., screening mode except underlined values
In short: (§1)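 HBS-EP pH 7.4 running buffer at 25° C. or 37° C.; N-biotinylated CGRP captured on streptavidin SA chip (<50 RU for kinetics), Fab titrated over surface with regeneration by 25 mM NaOH/25% ethanol. Titrations globally fit to 1:1 Langmuir model; KD=koff/kon, with 2-hour dissociation for very slow off-rates.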

rat α-CGRP = molecular target: T2, rat α-CGRP; experiment: Biacore SPR affinity of Fab fragments to N-biotinylated rat α-CGRP on SA chip; assay type: binding; settings: 37° C., screening mode except underlined values
In short: as §1

Molecule | α-human koff (human α-CGRP) | α-rat koff (rat α-CGRP)
B1 | 0.000142 s⁻¹ | 0.000695 s⁻¹
B2 | 0.000148 s⁻¹ | 0.00104 s⁻¹
B3 | 0.000357 s⁻¹ | 0.00341 s⁻¹
B4 | 0.000116 s⁻¹ | 0.0011 s⁻¹
B5 | 9.96e-05 s⁻¹ | 0.00125 s⁻¹
B6 | 0.000148 s⁻¹ | 0.000924 s⁻¹
B7 | 0.00013 s⁻¹ | 0.000799 s⁻¹
